# Ends that are not written are not given here.
# B1: ITGB1c-His (integrin β1 cytoplasmic domain, 752-798) (domain or fragment, UniProt P05556 752-798, looked up)
# chain: KLLMIIHDRREFAKFEKEKMNAKWDTGENPIYKSAVTTVVNPKYEGK
# modifications: also: His tag, position and length not given here
# B2: GST-NT (recombinant GST-fused girdin NT) (domain or fragment, human, UniProt Q3V6T2 1-256, looked up)
# chain: MENEIFTPLLEQFMTSPLVTWVKTFGPLAAGNGTNLDEYVALVDGVFLNQVMLQINPKLESQRVNKKVNNDASLRMHNLSILVRQIKFYYQETLQQLIMMSLPNVLIIGKNPFSEQGTEEVKKLLLLLLGCAVQCQKKEEFIERIQGLDFDTKAAVAAHIQEVTHNQENVFDLQWMEVTDMSQEDIEPLLKNMALHLKRLIDERDEHSETIIELSEERDGLHFLPHASSSAQSPCGSPGMKRTESRQHLSVELADA
# Key:
# [1] = target: B2; assay: in vitro binding assay
# [2] = target: EGFRc-His (EGFR cytoplasmic domain, 669-1210) (UniProt P00533 669-1210); assay: pull-down
binding result [1],binding result [2],Binder
binds,,B1
,binds,B2
